“And” between values parts separate entries of the source, which are not always exact repeats. Identical values can stand only once. Like-named read-outs stand apart in the source and are kept apart here. Values belong to the binder of their own block, whether it stands above or below them.
How the values were obtained:
Experiment in all cases: cell-based or functional assay
[1] = target: natural human IL-23 from activated THP-1 cells (human) (UniProt P29460)
[2] = target: recombinant human IL-23 (human) (UniProt P29460)
recombinant human IL-23 [3] = target: T1, recombinant human IL-23 (human, UniProt P29460 23-328)
T1 sequence 1: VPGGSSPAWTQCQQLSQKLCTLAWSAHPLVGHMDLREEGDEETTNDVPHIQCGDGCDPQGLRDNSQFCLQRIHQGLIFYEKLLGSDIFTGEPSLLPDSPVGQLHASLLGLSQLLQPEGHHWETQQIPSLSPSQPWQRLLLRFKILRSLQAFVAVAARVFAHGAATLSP
T1 sequence 2: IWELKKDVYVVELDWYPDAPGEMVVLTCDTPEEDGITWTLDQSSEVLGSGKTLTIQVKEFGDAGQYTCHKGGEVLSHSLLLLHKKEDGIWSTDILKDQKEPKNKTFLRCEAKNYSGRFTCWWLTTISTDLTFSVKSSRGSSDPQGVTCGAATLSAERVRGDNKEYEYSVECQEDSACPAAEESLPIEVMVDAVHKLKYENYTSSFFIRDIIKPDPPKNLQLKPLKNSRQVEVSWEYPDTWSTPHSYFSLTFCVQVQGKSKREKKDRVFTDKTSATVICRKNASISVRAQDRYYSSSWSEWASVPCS

recombinant human IL-23 [4] = target: T1, recombinant human IL-23; remark: listed apart in the source
[5] = target: T2, natural human IL-23 from activated THP-1 cells (human, UniProt P29460 23-328)
T2 sequence 1: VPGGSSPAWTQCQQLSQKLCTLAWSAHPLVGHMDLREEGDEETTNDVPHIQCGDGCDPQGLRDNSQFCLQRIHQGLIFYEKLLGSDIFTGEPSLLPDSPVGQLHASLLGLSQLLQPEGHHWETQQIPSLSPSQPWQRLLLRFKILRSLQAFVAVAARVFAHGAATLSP
T2 sequence 2: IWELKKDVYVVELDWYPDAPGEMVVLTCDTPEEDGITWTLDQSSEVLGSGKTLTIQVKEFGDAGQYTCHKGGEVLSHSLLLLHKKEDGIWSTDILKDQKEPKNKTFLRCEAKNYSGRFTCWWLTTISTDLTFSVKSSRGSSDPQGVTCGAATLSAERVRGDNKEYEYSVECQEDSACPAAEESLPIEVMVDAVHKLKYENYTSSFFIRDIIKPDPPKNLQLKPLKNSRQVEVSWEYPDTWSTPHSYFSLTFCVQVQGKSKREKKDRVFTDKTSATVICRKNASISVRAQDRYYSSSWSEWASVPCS

human IL-12 = target: T3, human IL-12 (human, UniProt P29459 23-219; P29460 23-328)
T3 sequence (looked up) 1: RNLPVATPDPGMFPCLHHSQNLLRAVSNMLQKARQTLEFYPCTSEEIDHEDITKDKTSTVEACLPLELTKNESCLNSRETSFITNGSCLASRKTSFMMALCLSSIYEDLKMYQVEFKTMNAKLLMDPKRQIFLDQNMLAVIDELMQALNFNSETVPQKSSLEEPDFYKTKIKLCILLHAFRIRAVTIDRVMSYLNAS
T3 sequence (looked up) 2: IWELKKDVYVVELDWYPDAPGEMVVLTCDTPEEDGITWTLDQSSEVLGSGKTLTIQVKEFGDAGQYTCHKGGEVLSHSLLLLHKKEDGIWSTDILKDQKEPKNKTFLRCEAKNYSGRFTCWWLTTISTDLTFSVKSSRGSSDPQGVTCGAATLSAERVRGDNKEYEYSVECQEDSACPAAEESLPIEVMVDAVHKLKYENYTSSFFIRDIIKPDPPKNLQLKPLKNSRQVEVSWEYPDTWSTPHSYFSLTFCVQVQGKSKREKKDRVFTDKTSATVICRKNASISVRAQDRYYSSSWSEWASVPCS

recombinant human IL-23 [6] = target: T1, recombinant human IL-23; remark: listed apart in the source

IC50, inhibition of IL-17 production from IL-23 stimulated mouse splenocytes [1]: 0.093 nM and 0.044 nM | IC50, inhibition of IL-23 induced STAT3 phosphorylation in human DB cells [2]: 0.163 nM and 0.438 nM
B1: Antibody C1273 (disclosed in WO 2007/005955) (antibody, from another filing, V domains shown)
VH: DVNLVESGGGLVKPGGSLKLSCAASGFTFSSYTMSWVRQTPEKRLEWVATISSGGTYTYYPDSVKGRFTISRDNAKNTLYLQMSSLKSEDTAMFYCTRDNHAYDRGPFFDYWGQGATLTVSS
VL: DIVMSQSPSSLVVSVGEKVTMSCKSSQNLFYRSNQKNHLAWYQQKPGQSPTLLIYWTSTRESGVPDRFTGSGSGTDFTLTISRVKAEDLAVYYCQQYYSYPPTFGGGTKLEIK

IC50, inhibition of IL-17 production from IL-23 stimulated mouse splenocytes (recombinant human IL-23 [3]): 1.6 nM and 0.806 nM and 1.3 nM
B2: Antibody 6H12 (disclosed in WO 2007/027714) (antibody, from another filing, V domains shown)
VH: EVHLQQSGPELVKPGASVKMSCKASGYTFNRYLIHWVKQKPGQGLEWIGYINPNNDGTNYNEKFKGKATLTSDKSSSTAYMELSSLTSEDSAVYYCAANWDQAYWGQGTLVTVSA
VL: DIVMTQSPATLSVTPGDRVSLSCRASQSISDYLHWYQQKSHESPRLLIKYTSQSISGIPSRFSGSGSGSDFTLSINSVEPEDVGVYYCQNGHSFPFTFGSGTKLEIKR

IC50, inhibition of IL-17 production from IL-23 stimulated mouse splenocytes (recombinant human IL-23 [4]): 0.236 nM and 0.225 nM and 0.614 nM and 0.458 nM | IC50, inhibition of IL-17 production from IL-23 stimulated mouse splenocytes [5]: 0.133 nM and 0.125 nM | Average pg/ml IFN-γ +/- Standard Deviation, human PHA-derived T cell blasts with 1 ng/ml IL-12 (no antibody: 532 +/- 51; unstimulated: 87 +/- 7) (human IL-12): 539 pg/mL | IC50, inhibition of IL-23 induced STAT3 phosphorylation in human DB cells (recombinant human IL-23 [6]): 0.158 nM
B3: Antibody D (antibody, human IgG1, kappa, L234A L235A, V domains shown)
VH: QVQLVQSGAEVKKPGSSVKVSCKASGFTFTDQTIHWVRQAPGQGLEWMGYIYPRDDSPKYNENFKGKVTLTADKSTSTAYMELSSLRSEDTAVYYCAIPDRSGYAWFIYWGQGTLVTVSS
VL: DIQMTQSPSSLSASVGDRVTITCKASRDVAIAVAWYQQKPGKVPKLLLFWASTRHTGVPDRFSGSGSGTDFTLTISSLQPEDLADYYCHQYSSYPFTFGQGTKLEIKR
